Source: the nanobody polyreactivity screen of Harvey et al. (2022)

Experiment: yeast display, Sf9 membrane polyspecificity reagent, FACS + sequencing; frameworks hold sequencing errors
Method in brief: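 In a synthetic yeast display library (Saccharomyces cerevisiae BJ5465), nanobody expression was induced with galactose for 36–48 hours. FACS gates were set low and high (top ~1%) using anti-HA fluorescence for expression and streptavidin fluorescence for binding of the Sf9 membrane reagent. Each polyreactivity label is drawn from the gate of origin.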

Row | Sequence | polyreactivity (PSR sort gate)
1 | QVQLVESGGGLVQAGGSLRLSCAASGFIFYGNAMGWYRQAPGKVRELVAGISRSGGSTYYADSVKGRFTISRDNAKNTVSLQMNSLKPEDSAVYYCAASYWHRRYDYWGQGTQVTVSS | high polyreactivity
2 | QVQLVESGGGLVQAGGSLRLSCAASGFIFYGYAMGWSRQAPGKERELVAAIRYSGTSTYADSVKGRFTISRDNAKNTVYLQMNSLKPEDTAVFYCAKKYLYYGVPSYKYWGQGTQVTVSS | high polyreactivity
3 | QVQLVESGGGLVQAGGSLRLSCAASGFIFYGYAMGWYRQAPGKERELVAGISTGGSTNYADSVKGRITISRDNAKNTVYLQMNSLKPEDTAVYYCAVVDVEEHVGHWGQGTQVTVSS | low polyreactivity
4 | QVQLVESGGGLVQAGGSLRLSCAASGFIFYGYAMGWYSQAPGKERELVAGISTGGSTNYADSVKGRFTISRDNAKNTVYLQMNSLKPEDTAVYYCAKRAYFYYGRYDYWGQGTQVTVSS | low polyreactivity
5 | QVQLVESGGGLVQAGGSLRLSCAASGFIFYHYAIGWYRQEPGKERELVAAISGRGGSTYYADSVKGRFTISRDNAKNSVYLQMNSLKPEDTAVYYCSTDYSRTFDYWGQGTQVTVSS | high polyreactivity
6 | QVQLVESGGGLVQAGGSLRLSCAASGFIFYINAMGWYRQAPGKERELVAAISTSGGSTYYADSVKGRFTISRDNAKNTVYLQMNSLKPEDSAVYYCAAEGSYWYYSYDYWGQGTQVTVSS | high polyreactivity
7 | QVQLVESGGGLVQAGGSLRLSCAASGFIFYKNAMGWYRQAPGKERELVAAISRRGSSTYYADSVKGRFTISRDNAKNTVYLQMNSLKPEDTAVYYCAADSHIDHGKWAYDYWGQGTQVTVSS | high polyreactivity
8 | QVQLVESGGGLVQAGGSLRLSCAASGFIFYKNAMGWYRQAPGKERELVAISSSGGSTYYADSVKGRFTISRDNAKNSVYLQMNSLKPEDTAVYYCADRSRRYRGGYWGQGTQVTVSS | high polyreactivity
9 | QVQLVESGGGLVQAGGSLRLSCAASGFIFYKYAMGWYRQAPGKEREFVAAITWSGGNTYYADSVKGRFTISRDNAKNTVYLQMNSLKPEDTAVYYCAARDSKWGQGTQVTVSS | low polyreactivity
10 | QVQLVESGGGLVQAGGSLRLSCAASGFIFYKYAMGWYRQAPGKERELVARISISGGRTYYADSVKGRFTISRDNAKNTVYLQMNSLKPEDTAVYYCATSPWWYGYAAYGMDYWGQGTQVTVSS | low polyreactivity
11 | QVQLVESGGGLVQAGGSLRLSCAASGFIFYLNAMGWSRKAPGKERELVAAISSSGGRTYYADSVKGRFTISRDNAKNTVYFQMNSLKAEDTAVYYCNAVTLYRSRTDGYWGQGTQVTVSS | high polyreactivity
12 | QVQLVESGGGLVQAGGSLRLSCAASGFIFYLYTMGWYRQAPGKERELVAAITKSGTRTYYADSVKGRFTISRDNAKNTVYLQMNSLKPEDTAVYYCAAEWGSSYRWGMDYWGQGTQVTVSS | high polyreactivity
13 | QVQLVESGGGLVQAGGSLRLSCAASGFIFYLYTMGWYRQAPGKERELVAAITRSGGTYYADSVKGRFTISRDNAKNTVYLQMNSLKPEDTAVYYCNADDYEGYYYWGQGTQVTVSS | low polyreactivity
14 | QVQLVESGGGLVQAGGSLRLSCAASGFIFYPYAMGWYRQAPGKERELVAVITSGGRTYYADSVKGRFTISRDNAKNTVYLQMNSLKPEDTAVYYCAARYGRIHWKANWPEYGYWGQGTQVTVSS | low polyreactivity
15 | QVQLVESGGGLVQAGGSLRLSCAASGFIFYPYAMGWYRQAPGKERELVAVITSGGRTYYADSVKGRFTISRDNAKNTVYLQMYSLKPEDTAVYYCNADTFQWWDIADVYVIVKYGYWGQGTQVTVSS | low polyreactivity
16 | QVQLVESGGGLVQAGGSLRLSCAASGFIFYPYAMGWYRQAPGKVRELVAVITSGGRTYYADSVKGRFTISRDNAKNTVYLQMNSLKAEDTAVYYCAARYGRIHWKANWPEYGYWGQGTQVTVSS | low polyreactivity
17 | QVQLVESGGGLVQAGGSLRLSCAASGFIFYQYAKGWYRQAPGKERELVATISFRGGRTYYADSVKGRFTITRDTAKNTVYLQMNSLKPDETAVYYCNAKRVSSRFYKWDYYWGQGTQVTVSS | high polyreactivity
18 | QVQLVESGGGLVQAGGSLRLSCAASGFIFYRNTMGWYRQAPGKEREFFAAITRSGGITRYADSVKGRFTISRDNAKNTVYLQMNSLKPEDTAVYYCAARRWIADPGRIMDYWGQGTQVTVSS | high polyreactivity
19 | QVQLVESGGGLVQAGGSLRLSCAASGFIFYRYAIGWYRQEPGKERELVAAITRSGRSTYYADSVKGRFTISRDNAKNTVYLQMNSLKAEDTAVYYCAVFGSYWWRGLSEDYWGQGTQVTVSS | high polyreactivity
20 | QVQLVESGGGLVQAGGSLRLSCAASGFIFYRYAMGWYRQAPGKERELVAAISWSGGTTYYADSVKGRFTISRDNAKNTVYLQMNSLKPEDTAVYYCAARSVPSPERGFYYWGQGTQVTVSS | high polyreactivity
21 | QVQLVESGGGLVQAGGSLRLSCAASGFIFYRYAMGWYRQAPGKERELVAAISYSGGSTYYADSVKGRFTISRDNAKNTVYLQMISLKPEDTAVYYCAAGSKYRYDYWGQGTQVTVSS | high polyreactivity

Row | Sequence | polyreactivity (PSR sort gate)
22 | QVQLVESGGGLVQAGGSLRLSCAASGFIFYRYAMGWYRQAPGKERELVAAITGGGSTYYADSVKGRFTISRDNAKNTVYLQMNSLKPEDTAVYYCNAVTYGWTAYDKGKRYDYWGQGTQVTVSS | high polyreactivity
23 | QVQLVESGGGLVQAGGSLRLSCAASGFIFYRYAMGWYRQAPGKERELVAAITSDGSTYYADSVKGRFTISRDNAKNTVYLQMNSLKPEDTAVYYCNAERWGNSVGNYWGQGTQVTVSS | high polyreactivity
24 | QVQLVESGGGLVQAGGSLRLSCAASGFIFYRYARGWYRQAPGKERELVAVISRGGNTYYADSVKGRFTISRDNAKNTVYLQMNSLKPEDTAVYYCNKRLRDSYRLYYYWGQGTQVTVSS | high polyreactivity
25 | QVQLVESGGGLVQAGGSLRLSCAASGFIFYRYTLGWSRQAPGKERELVAAITSGGSTYYADSVKGRFTISRDNAKNTVYLQMNSLKPEDSAVYYCAAAYQRWFNRRDYWGQGTQVTVSS | high polyreactivity
26 | QVQLVESGGGLVQAGGSLRLSCAASGFIFYSNAMGWYRPAPGKERELVAAISWGGGRTYYADSVKGRFTISRDNAKNTVYLQMNSLKPEDTAVYYCAAAGYHSGKGGGYWGQGTQVTVSS | high polyreactivity
27 | QVQLVESGGGLVQAGGSLRLSCAASGFIFYSYAMGWSRQAPGKERELVAAISSTGTSTYYADSVKGRFTISRDNAKNTVYLQMNSLKPEDTAVYYCNAGYAFDPDETYDYWGQGTQVTVSS | low polyreactivity
28 | QVQLVESGGGLVQAGGSLRLSCAASGFIFYSYAMGWYRQAPGKEREFVAAISRAGSTNYADSVKGRFTISRDNAKNTVYLQMNSLIPEDTAVYYCNKGYHSWSRLSQFGWSYDYWGQGTQVTVSS | high polyreactivity
29 | QVQLVESGGGLVQAGGSLRLSCAASGFIFYSYAMGWYRQAPGKEREFVASICGGTGSTYYADSVKGRFTISRDNAKNTVYLQMNSLIPEDTAVYYCNARIVHSFRYDYWGQGTQVTVSS | low polyreactivity
30 | QVQLVESGGGLVQAGGSLRLSCAASGFIFYSYAMGWYRQAPGKERELVAAISGSGGSTYYADSVKGRFTISRDNAKNTVYLQMNSLKPEDTAVYYCAAALTFRMDYWGQGTQVTVSS | high polyreactivity
31 | QVQLVESGGGLVQAGGSLRLSCAASGFIFYSYAMGWYRQAPGKERELVAAISWSGGRTYYADSVKGRFTISRDNAKNTVYLQMNSLKPEDTAVYYCNADDYSFSFTVPYYIEYVYWGQGTQVTVSS | high polyreactivity
32 | QVQLVESGGGLVQAGGSLRLSCAASGFIFYSYDMGWYRQAPGKERELVAAIDSRGVNTYYADSVKGRFTISRDNAKNTVYLQMNILKPEDTAVYYCNVDAITWWDWEDFDYWGQGTQVTVSS | low polyreactivity
33 | QVQLVESGGGLVQAGGSLRLSCAASGFIFYTNAMGWYRQAPGKERELVAAISRGGTTYYADSVKGRFTISRDNAKNTVYLQMNSLKPEDTAVYYCAKAWPDHWYSRYDYWGQGTQVTVSS | low polyreactivity
34 | QVQLVESGGGLVQAGGSLRLSCAASGFIFYTYAMGWYRQAPGKERELVAAIRRGGSTYYADSVKGRFTISRDNAKNTVYLQMNSLKPEDTAVYYCNARIPYKAKTNHFGYWGQGTQVTVSS | high polyreactivity
35 | QVQLVESGGGLVQAGGSLRLSCAASGFIFYYNAMGWYRQAPGKERELVAAISTDGGSTYYADSVKGRFTISRDNAKNTVYLQMNSLKPEDTAVYYCAANRYKRYDYWGQGTQVTVSS | low polyreactivity
36 | QVQLVESGGGLVQAGGSLRLSCAASGFIFYYNTMGWYRQAPGKERELVASITWSGDTTYYADSVKGRFTISRDNAKNTVYLQMNSLKPEDTAVYYCAAVHYYPYRRYDYWGQGTQVTVSS | low polyreactivity
37 | QVQLVESGGGLVQAGGSLRLSCAASGFIFYYYAMGWYRQAPGKEREFVAGISRSGGSTYYADSVKGRFTISRDNAKNTVYLQMNSLKPEDTAVYYCGEFWTYWGYGQYDYWGQGTQVTVSS | low polyreactivity
38 | QVQLVESGGGLVQAGGSLRLSCAASGFIFYYYAMGWYRQAPGKERELVAAISSGGSTYYADSVKGRFTISRDNAKNTVYLQMNSLKPEDTAVYYCNARGFYRGYTYYYWGQGTQVTVSS | high polyreactivity
39 | QVQLVESGGGLVQAGGSLRLSCAASGFIFYYYAMGWYRQAPGKERELVAAISSRGGITYYADSVKGRFTISRDNAKNTVYLQMNSLKPEDTAVYYCAVDFRPGYDYWGQGTQVTVSS | low polyreactivity
40 | QVQLVESGGGLVQAGGSLRLSCAASGFIFYYYAMGWYRQAPGKERELVAAISSSGTSTYYADSVKGRFTISRDNAKYTVYLQMNSLKPEDTAVYYCAAYSSHREDYWGQGTQVTVSS | high polyreactivity
41 | QVQLVESGGGLVQAGGSLRLSCAASGFIFYYYAMGWYRQAPGKERELVATITSGGGTYYADSVKGRFTISRDNAKNTVYVQMISLKPEDTAVYYCAKRDLEQSAFLGYDYWGQGTQVTVSS | low polyreactivity
